The target in series [1] is WelP1 (Hapalosiphon welwitschii, UniProt A0A067YVH5). The series is described as follows: LC-MS product formation. It counts as biochemical. Conditions: co-substrate GPP; MgCl2 5 mM; Tris 50 mM pH 8.0.
Series [2] has as its system [C-]#[N+]/C=C\c1c[nH]c2ccccc12. In words: purified protein. The conditions noted are these: co-substrate GPP, MgCl2 10 mM, pH 8.0. It counts as biochemical, Fischerella ambigua.

This passage reports LC-MS product formation, Km and kcat results from article PMC4720564 (Chemical communications (Cambridge, England), 2016).

For `[C-]#[N+]/C=C\c1c[nH]c2ccccc12` [(Z)-1, cis-indolyl vinyl isonitrile], in series [1], the LC-MS product formation entry is “The enzymatic products derived from WelP1 and FidP1 are perfectly identical to that from AmbP1”.

For the compound AmbP1 (Fischerella ambigua UTEX 1903), in series [2], the Michaelis constant (Km) (in general, the concentration of substrate that gives half-maximal velocity) was determined as 15.4 ± 3.2 µM and the kcat (as a rule, the maximal rate divided by the concentration of active sites) came to 6.9 ± 1.2 s⁻¹.
